Test results: patent US20240277770A1 (Genentech, published 2024)

The binders below were run against T1, HLA-A*02:01 (human) (assay: HLA-I IP and untargeted MS of monoallelic cells).
T1 construct: whole, on cells; MHC class I on a monoallelic cell line (HMy2.C1R)

Binder	binding result
IMSDSNYVV	binds

The binders below were run against T2, HLA-A*11:01 (human) (assay: HLA-I IP and targeted MS with hipMHC standards, A*11:01 monoallelic C1R cells (FIG. 12B)).
T2 construct: whole, on cells; MHC class I on a monoallelic cell line

Binder	binding result
VVGAGGVGK (also called KRAS G12 wild type 9-mer)	binds
VVVGAGGVGK (also called KRAS G12 wild type 10-mer)	binds

These binders were tested against T3, HLA-A*01:01 (human) (assay: HLA-I IP (W6/32) and targeted MS of monoallelic HMy2.C1R cells expressing the polyantigen cassette).
T3 construct: whole, on cells; MHC class I on a monoallelic cell line

Binder	binding result
LDTAGKEEY	binds
YTDVSNMSH	binds
ILDTAGKEEY	binds
ILDTAGREEY	binds
YTDVSNMSHLA	binds
DTAGREEY	binds

The binders below were run against T4, HLA-C*06:02 (human) in the same assay as above.
T4 construct: whole, on cells; MHC class I on a monoallelic cell line

Binder	binding result
KRNSLALSL	binds
GRNSFEVHV	binds

These binders were tested against T5, HLA-C*07:01 (human) in the same assay as above.
T5 construct: whole, on cells; MHC class I on a monoallelic cell line

Binder	binding result
EKSRWSGSHQF	binds
KRNSLALSL	binds

These binders were tested against T6, HLA-C*07:02 (human) in the same assay as above.
T6 construct: whole, on cells; MHC class I on a monoallelic cell line

Binder	binding result
KRNSLALSL	binds

The binders below were run against T7, HLA-A*03:01 (human) in the same assay as above.
T7 construct: whole, on cells; MHC class I on a monoallelic cell line

Binder	binding result
ASGAFGTVYK	binds
VVVGAAGVGK	binds
VVVGADGVGK	binds
KITDFGRAK	binds
VVGASGVGK	binds
VVGAGDVGK	binds
VVVGAVGVGK	binds
VVVGASGVGK	binds
VVVGARGVGK	binds

What follows are binders tested against T2, HLA-A*11:01 in the same assay as above.

Binder	binding result
ASGAFGTVYK	binds
SCMGGMNQR	binds
VVVGAAGVGK	binds
VVVGADGVGK	binds
ASGAFGTVY	binds
STRDPLSEITK	binds
LASGAFGTVYK	binds
VVGACGVGK	binds
VVGAAGVGK	binds
VVGASGVGK	binds
VVGADGVGK	binds
VVGAGCVGK	binds
VVGAGDVGK	binds
VVVGAVGVGK	binds
VVVGAGCVGK	binds
VVVGASGVGK	binds
VVVGARGVGK	binds

The binders below were run against T8, HLA-B*07:02 (human) in the same assay as above.
T8 construct: whole, on cells; MHC class I on a monoallelic cell line

Binder	binding result
RSKRNSLAL	binds
GARGVGKSAL	binds
GARGVGKSA	binds
RPIPIKYKAM	binds
MPFGSLLDY	binds
KPIIIGCH	binds
CPHRPILQA	binds
SPNGTIQNIL	binds

The binders below were run against T9, HLA-B*08:01 (human) in the same assay as above.
T9 construct: whole, on cells; MHC class I on a monoallelic cell line

Binder	binding result
FKKIKVLAS	binds
ERCPHRPIL	binds
DGVGKSAL	binds
FGLARYIM	binds
WVKPIIIGC	binds
SKRNSLAL	binds
KMRRKMSP	binds
MIKRSKRNSL	binds
FMKQMNDAL	binds
AGREEYSAM	binds
FGRAKLLGA	binds

Each binder was assayed against T10, HLA-B*35:01 (human) in the same assay as above.
T10 construct: whole, on cells; MHC class I on a monoallelic cell line

Binder	binding result
MPFGSLLDY	binds
PIIIGHHAY	binds
IIIGGHAY	binds
IIIGHHAY	binds
VKPIIIGHHAY	binds

What follows are binders tested against T11, HLA-C*05:01 (human) in the same assay as above.
T11 construct: whole, on cells; MHC class I on a monoallelic cell line

Binder	binding result
IGDFGLATM	binds
CNTTARAFAVV	binds
GRNSFEVCV	binds
STDVGFCTL	binds
GADGVGKSAL	binds
